# Measured values as given in US20210261671A1 (HARPOON THERAPEUTICS, published 2021).
# How the values were obtained:
# human FLT3 protein [1] = biological target: T1, human FLT3 protein (human, UniProt P36888 27-541, limits assumed); assay: colorimetric ELISA, periplasmic extract
# T1 construct: protein coated in the screening ELISA; also called ELISA FLT3
# From the text: (§1) Llamas were immunized with purified FLT3 protein expressed in Expi293 cells. A phage display library for expression of heavy variable antibody domains was constructed from circulating B cells isolated from the immunized llamas (See van der Linden, de Geus, Stok, Bos, van Wassenaar, Verrips, and Frenken. 2000. J Immunol Methods 240:185-195). Phage clones were screened for binding to FLT3 by expressing llama anti-FLT3 proteins in E. coli, preparing periplasmic extracts, and performing colorimetric ELISAs.
# human FLT3 protein [2] = biological target: T1, human FLT3 protein; assay: colorimetric ELISA, signal over control wells lacking FLT3
# From the text: as §1
Binder,ELISA FLT3 (absorbance) (human FLT3 protein [1]),FLT3/control (human FLT3 protein [2]) [ratio]
"FLL107 (VHH, llama anti-FLT3 variable domain; E. coli periplasmic extract) VHH: QVQLQESGGGLVQAGGSLRLSCAASGRTFSSYAMGWFRQAPGKEREFVAAISWSGSNTYYADSVKGRFTISRDNAKNTVYLQMDSLKPEDTAVYYCAAGGSTRVVVTTTPVVKYWGQGTQVTVSS",3.8,11
"FLL4 (VHH, llama anti-FLT3 variable domain; E. coli periplasmic extract) VHH: QVQLQESGGGLVQAGGSLRLSCAASERTFSSYTMGWFRQAPGKEREFVAAMSWSGGSTYYADSVKGRFTISRDNAKNTVYLQMDSLKPEDTAVYYCAAGGSTRVVVTTTPVVKYWGQGTQVTVSS",3.7,43
"FLL34 (VHH, llama anti-FLT3 variable domain; E. coli periplasmic extract) VHH: QVQLQESGGGLVQAGGSLRLSCAASGRTFSSYALGWFRQAPGKEREFVAAISWSGGNTYYADSVKGRFTISRDDAKNTVYLQMDSLKPEDTAVYYCAAGGSTRVVVTTTPVVKYWGQGTQVTVSS",4,39
"FLL61 (VHH, llama anti-FLT3 variable domain; E. coli periplasmic extract) VHH: QVQLQESGGGLVQAGGSLRLSCAASERTFSSYAMGWFRQAPGKEREFVAAISWSGGSTYYADSVKGRFTISRDNAKNTVYLQMDSLKPEDTAVYYCAAGGSTRVVVTTTPIVKYWGQGTQVTVSS",3.9,25
"FLL78 (VHH, llama anti-FLT3 variable domain; E. coli periplasmic extract) VHH: QVQLQESGGGWVQAGGSLRLSCAASGRTFSSYAMGWFRQAPGKEREFVAAISWSGSSTYYADSVKGRFTISRDNAKNTVYLLMDSLKPEDTAVYYCAAGGSTRVVVTTTPVVKYWGQGTQVTVSS",4,27
"FLL116 (VHH, llama anti-FLT3 variable domain; E. coli periplasmic extract) VHH: QVQLQESGGGLVQAGGSLRLSCAASGVTFSINYIDWYRQAPGKQREWVAQITRDSNSFYADSVKGRFAISRDNAKNTVYLQMNSLKPEDTAVYYCRVLSYWGQGTQVTVSS",1.1,5
"FLL51 (VHH, llama anti-FLT3 variable domain; E. coli periplasmic extract) VHH: QVQLQESGGGLVQPGGSLRLSCAASGFDFSISYIDWYRQAPGNEREWVAQITRGGDSFYADSVKGRFAISRDNAKNTVYLQMNSLKPEDTAVYYCRILSYWGQGTQVTVSS",2.9,16
"FLL101 (VHH, llama anti-FLT3 variable domain; E. coli periplasmic extract) VHH: QVQLQESGGGLVQAGGSLRLSCAASGVTFSINYIDWYRQAPGKQREWVAQITRDSNSFYADSVKGRFAISRDNAKNTVYLQMNNLKPEDTAVYYCRVLSYWGQGTQVTVSS",1.7,3
"FLL77 (VHH, llama anti-FLT3 variable domain; E. coli periplasmic extract) VHH: QVQLQESGGGLVQPGGSLRLSCAASGVTFSISYIDWYRQAPGNEREWVAQITRGGDSFYADSVKGRFAISRDNAKNTVYLQMNSLKPEDTAVYYCRILSYWGQGTQVTVSS",4,22
"FLL32 (VHH, llama anti-FLT3 variable domain; E. coli periplasmic extract) VHH: QVQLQESGGGLVQAGGSLRLSCQASGVTFNINYIDWYRQAPGRQREWVAQITRDSTRFYADSVKGRFAISRDNAKNMVYLQLNSLKPEDTAVYYCRILSYWGQGTQVTVSS",1.6,5
"FLL103 (VHH, llama anti-FLT3 variable domain; E. coli periplasmic extract) VHH: QVQLQESGGGLVQAGGSLRLSCEASGPTFSINYIDWYRQAPGKQREWVAQITRDSNSFYADSVKGRFAVSRDNAKNTVYLQMNSLKPEDTAVYYCRVLSYWGQGTQVTVSS",3.8,28
"FLL97 (VHH, llama anti-FLT3 variable domain; E. coli periplasmic extract) VHH: QVQLQESGGGLVQAGGSLRLSCAASGVTFSINYIDWYRQAPGKQREWVAQITRDSNSFYADSVKGRFAVSRDNAKNTVYLQMNSLKPEDTAVYYCRVLSYWGQGTQVTVSS",1.4,7
"FLL14 (VHH, llama anti-FLT3 variable domain; E. coli periplasmic extract) VHH: QVQLQESGGGLVQAGGSLRLSCAASGVTFSINYIDWYRQAPGKQREWVAQITRDSNSFYADSVKGRFAISRDNAKNTVYLQMNSLKPEDTAVYYCRLLSYWGQGTQVTVSS",1.8,5
"FLL1 (VHH, llama anti-FLT3 variable domain; E. coli periplasmic extract) VHH: QVQLQESGGGLVQAGGSLRLSCAASGRTFSTLTVAWFRQAPGKEREFVVASIPSGSNTGYAESVKGRFTISRDIAKNTVYLQMNSLKPEDTAMYFCAARIYFGSSRGYDYWGQGTQVTVSS",3.4,11
"FLL26 (VHH, llama anti-FLT3 variable domain; E. coli periplasmic extract) VHH: QVQLQESGGGLVQAGGSLRLSCAASGRTFTTYTVAWFRQAPGKEREFLVASIPTGSNTAYAESVKGRFTISRGNAKNTVYLQMNSLKPEDTAMYYCAARTYFGSSRGYDYWGQGTQVTVSS",2.9,4

# Second part, the binder after the results:
ELISA FLT3 (absorbance) (human FLT3 protein [1]),FLT3/control (human FLT3 protein [2]) [ratio],Binder
4,28,"FLL141 (VHH, llama anti-FLT3 variable domain; E. coli periplasmic extract) VHH: QVQLQESGGGLVQAGGSLRLSCAASGRTFSSYAMGWFRQAPGMEREFVAAISWSGYSTYYADSVKGRFTISRDDAKNTVYLQMDSLKPEDTAVYYCAAGGSTRVVVTTTPVVKYWGQGTQVTVSS"
1.9,18,"FLL187 (VHH, llama anti-FLT3 variable domain; E. coli periplasmic extract) VHH: QVQLQESGGGLVQPGGSLRLSCAASGVTFSINYIDWYRQAPGKQREWVAQITRDSNSFYADSVKGRFAISRENAKNTVYLQMNSLKPEDTAVYYCRVLSYWGQGTQVTVSS"
3.7,17,"FLL179 (VHH, llama anti-FLT3 variable domain; E. coli periplasmic extract) VHH: QVQLQESGGGLVQAGGSLRLSCKASGVTFSINYIDWYRQAPGKQREWVAQITRDGSSFYADSVKGRFAISRDNAKNTVYLQMNSLKPEDTAVYYCRILSDWGQGTQVTVSS"
2.6,9,"FLL129 (VHH, llama anti-FLT3 variable domain; E. coli periplasmic extract) VHH: QVQLQESGGGLVQAGGSLRLSCAASGVTFSASYIDWYRQAPGNEREWVAQITRGGDSFYADSVKGRFAISRDNAKNTVYLQMNSLKPEDTAVYYCRVLSYWGQGTQVTVSS"
0.9,4,"FLL146 (VHH, llama anti-FLT3 variable domain; E. coli periplasmic extract) VHH: QVQLQESGGGLVQAGGSLRLSCAASGVTFSINYIDWYRQAPGKQREWVAQITRDDTSFYADSVKGRFAISRDNAKNTVYLQMNNLRPEDTAVYYCRLLSFWGQGTQVTVSS"
1.8,8,"FLL137 (VHH, llama anti-FLT3 variable domain; E. coli periplasmic extract) VHH: QVQLQESGGGLVQAGGSLRLSCAASGSTFNNYAMDWFRQAPGKQREWVAQITRDSSSFYADSVKGRFAISRDNAKNTVYLQMNSLKPEDTAVYYCRVLSYWGQGTQVTVSS"
3.2,5,"FLL181 (VHH, llama anti-FLT3 variable domain; E. coli periplasmic extract) VHH: QVQLQESGGGLVQAGDSLRLSCAASGVTFSASYIDWYRQAPGNEREWVAQITRGGDSFYADSVKGRFAISRDNAKNTVYLQMNSLKPEDTAVYYCRVLSYWGQGTQVTVSS"
